Data: article PMC4109836, “Analysis of the co-operative interaction between the allosterically regulated proteins GK and GKRP using tryptophan fluorescence” (Biochemical Journal, 2014)
Numbering of substitutions follows the chain as printed. In names and notes the source's numbering stands. Read-outs that look alike come from different tables or passages of the source.

Experiments:
GKRP-WT = biological target: T1, GKRP-WT (Homo sapiens, UniProt Q14397); experiment: Ligand binding to free GKRP-WT measured by TF of GKRP; conditions: ligand alone
T1 construct: FLAG; made in house; host or cells: Escherichia coli
T1 sequence (Q14397 1-625): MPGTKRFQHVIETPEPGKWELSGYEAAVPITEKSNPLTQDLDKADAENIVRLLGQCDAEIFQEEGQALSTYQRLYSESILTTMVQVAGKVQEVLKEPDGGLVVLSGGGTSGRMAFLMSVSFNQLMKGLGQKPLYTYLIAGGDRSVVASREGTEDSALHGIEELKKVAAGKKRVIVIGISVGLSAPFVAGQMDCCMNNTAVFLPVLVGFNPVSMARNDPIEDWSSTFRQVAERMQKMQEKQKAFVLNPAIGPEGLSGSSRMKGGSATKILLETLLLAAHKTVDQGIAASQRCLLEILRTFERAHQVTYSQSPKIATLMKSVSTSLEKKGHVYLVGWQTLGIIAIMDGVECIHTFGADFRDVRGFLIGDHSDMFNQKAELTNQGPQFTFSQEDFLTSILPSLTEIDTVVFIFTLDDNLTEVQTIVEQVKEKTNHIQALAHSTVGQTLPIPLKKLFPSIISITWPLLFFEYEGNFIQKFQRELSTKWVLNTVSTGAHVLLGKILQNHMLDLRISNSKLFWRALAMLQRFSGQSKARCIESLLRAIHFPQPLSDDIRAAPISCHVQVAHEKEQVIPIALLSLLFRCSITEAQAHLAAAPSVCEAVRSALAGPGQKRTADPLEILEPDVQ

GK-W99R/W167F/W257F = biological target: T2, GK-W99R/W167F/W257F (Homo sapiens, UniProt P35557, W167F/W257F/W99R); experiment: Glucose binding to unbound GK-W99R/W167F/W257F
T2 construct: GST (cleaved yes); made in house; host or cells: Escherichia coli
T2 sequence (P35557 1-465 W99R/W167F/W257F): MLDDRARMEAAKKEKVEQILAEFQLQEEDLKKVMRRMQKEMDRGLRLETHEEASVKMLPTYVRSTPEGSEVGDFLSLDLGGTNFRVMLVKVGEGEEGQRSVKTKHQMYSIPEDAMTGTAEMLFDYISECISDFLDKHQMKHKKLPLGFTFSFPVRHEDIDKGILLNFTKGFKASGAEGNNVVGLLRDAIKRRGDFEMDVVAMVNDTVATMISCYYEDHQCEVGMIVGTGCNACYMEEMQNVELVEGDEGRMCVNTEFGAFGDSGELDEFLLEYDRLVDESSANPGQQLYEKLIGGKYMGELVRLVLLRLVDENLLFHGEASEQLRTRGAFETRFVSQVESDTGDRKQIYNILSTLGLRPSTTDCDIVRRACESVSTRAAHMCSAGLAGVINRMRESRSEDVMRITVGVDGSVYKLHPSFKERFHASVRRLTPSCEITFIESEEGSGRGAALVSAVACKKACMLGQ

GKRP-P446L = biological target: T3, GKRP-P446L (Homo sapiens, UniProt P35557+Q14397, P446L/W167F/W257F/W99R); experiment: Titration of GKRP-P446L with GK-W99R/W167F/W257F (GK–GKRP complex assembly) by TF; type: binding; design: ΔF: scale not given here; conditions: for Kd: read-out: S0.5 of GK
T3 construct: FLAG; GST (cleaved yes); made in house; host or cells: Escherichia coli
T3 sequence (Q14397 1-625 P446L): T1 sequence (Q14397 1-625) with P446L
T3 sequence (P35557 1-465 W99R/W167F/W257F): T2 sequence (P35557 1-465 W99R/W167F/W257F)
Experimental: Spectra were measured with a Fluorolog-3-21 Jobin-Yvon Spex Instrument SA equipped with a 450 W Xenon lamp for excitation and a cooled R2658P Hamamatsu photomultiplier tube for detection. For all measurements, 90° geometry was employed and 295 nm excitation wavelengths were used to observe fluorescence emission in the 300–500 nm range. For TF, spectra slit width was set to provide a bandpath of 3 nm for excitation and 3 nm for emission. Spectra were corrected for instrumental response using Spex instrument software. A thermostatically controlled cell holder maintained sample temperature at 20°C. A thermocoupler was used to measure sample temperature. The buffer used contained 20 mM phosphate, 50 mM KCl, 1 mM EDTA and 1 mM DTT (pH 7.2).
Fluorescence data were obtained via the stepwise addition of the appropriate amount of non-fluorescent GK-W99R/W167F/W257F to GKRP in a fluorescence cuvette. […] The change in GKRP protein fluorescence during titration was also measured using time-dependent scans. A manual procedure was used such that a typical titration with 10–12 additions required 20–25 min to perform. The same buffer as described above was routinely used unless stated otherwise. The bandpath was 0.5 nm at 295 nm for excitation and 12 nm at 340 nm for emission. […] For some graphical presentations the linear form of the Hill equation was used: log[F/(Fsat−F)]=H log x−H log KD [46].

[1] = GK titration with 20 μM GKA, 20°C
[2] = GK titration with 500 μM F1P, 20°C
[3] = GK titration with 500 μM F6P, sigmoidal fit, 20°C
[4] = GK titration with 500 μM F6P, simple saturation fit (H = 1)
[5] = GK titration with 100 mM D-glucose and 20 μM GKA, 20°C
[6] = GK titration with 100 mM D-glucose and 500 μM F1P, 20°C
[7] = GK titration with 100 mM D-glucose and 500 μM F6P, 20°C
[8] = GK titration with 100 mM D-glucose, 20°C
[9] = GK titration, no further agent, sigmoidal fit, 20°C
[10] = GK titration, no further agent, simple saturation fit (H = 1)

Molecule: OC[C@H]1OC(O)[C@H](O)[C@@H](O)[C@@H]1O (stereo partly drawn) [D-Glucose, D-glucose]
- ΔF (relative fluorescence change at 340 nm) (GKRP-WT; 0.3 μM GKRP-WT, 20°C): 0
- effect on the TF signal of GKRP-WT (GKRP-WT): no effect
- Kd (GK-W99R/W167F/W257F): 5000 µM

B1: GK-W99R/W167F/W257F: tryptophan residue-free, non-fluorescent recombinant human β-cell GK made for the present study (protein)
chain: T2 sequence (P35557 1-465 W99R/W167F/W257F)
modifications: left off: GST, end not stated, cleaved
notes: tryptophan residue-free, non-fluorescent recombinant human β-cell GK made for the present study
- H (GKRP-P446L; [1]): 2.17
- ΔF (GKRP-P446L; [1]): 0.43
- Kd (GKRP-P446L; [1]): 2.59 µM
- H (GKRP-P446L; [2]): 2.84
- ΔF (GKRP-P446L; [2]): 0.41
- Kd (GKRP-P446L; [2]): 2.95 µM
- H (GKRP-P446L; [3]): 1.31
- ΔF (GKRP-P446L; [3]): 0.44
- Kd (GKRP-P446L; [3]): 1.66 µM
- H (GKRP-P446L; GK titration with 500 μM F6P, simple saturation fit): 1
- ΔF (GKRP-P446L; [4]): 0.55
- Kd (GKRP-P446L; [4]): 2.45 µM
- H (GKRP-P446L; [5]): 2.68
- ΔF (GKRP-P446L; [5]): 0.42
- Kd (GKRP-P446L; [5]): 3.55 µM
- H (GKRP-P446L; [6]): 2.77
- ΔF (GKRP-P446L; [6]): 0.44
- Kd (GKRP-P446L; [6]): 2.97 µM
- H (GKRP-P446L; [7]): 2.45
- ΔF (GKRP-P446L; [7]): 0.42
- Kd (GKRP-P446L; [7]): 2.84 µM
- H (GKRP-P446L; [8]): 2.94
- ΔF (GKRP-P446L; [8]): 0.43
- Kd (GKRP-P446L; [8]): 3.38 µM
- H (GKRP-P446L; [9]): 1.86
- ΔF (GKRP-P446L; [9]): 0.44
- Kd (GKRP-P446L; [9]): 2.05 µM
- H (GKRP-P446L; GK titration, no further agent, simple saturation fit): 1
- ΔF (GKRP-P446L; [10]): 0.82
- Kd (GKRP-P446L; [10]): 5.23 µM
- maximal ΔTF value of GKRP-P446L (GKRP-P446L; range under all conditions tested): 0.41–0.44
- increase of the TF of GKRP-P446L (GKRP-P446L; saturating GK (5 μM), 0.3 μM GKRP): 44%
